Data as given in paper PMC10397247.
Read-outs that look alike come from different tables or passages of the source.

Experiments:
Assay in all cases: two-hybrid library CCmax;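 further: natural log of median RNA to DNA barcode read ratio; higher means stronger binding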
4H2883-AA = molecular target: T1, 4H2883-AA; conditions: mean of both orientations
T1 chain: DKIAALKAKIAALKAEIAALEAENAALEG

4H3844-AA = molecular target: T2, 4H3844-AA; conditions: mean of both orientations
T2 chain: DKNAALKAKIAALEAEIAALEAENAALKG

4H717-AA = molecular target: T3, 4H717-AA; conditions: mean of both orientations
T3 chain: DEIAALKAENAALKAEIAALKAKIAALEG

4H2944-AA = molecular target: T4, 4H2944-AA; conditions: mean of both orientations
T4 chain: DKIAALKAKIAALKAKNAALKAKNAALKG

4H3112-AA = molecular target: T5, 4H3112-AA; conditions: mean of both orientations
T5 chain: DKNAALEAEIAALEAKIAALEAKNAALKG

4H566-AA = molecular target: T6, 4H566-AA; conditions: mean of both orientations
T6 chain: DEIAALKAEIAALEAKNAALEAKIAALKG

4H234-AA = molecular target: T7, 4H234-AA; conditions: mean of both orientations
T7 chain: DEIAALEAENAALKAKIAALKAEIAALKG

4H342-AA = molecular target: T8, 4H342-AA; conditions: mean of both orientations
T8 chain: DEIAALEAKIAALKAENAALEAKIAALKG

4H3627-AA = molecular target: T9, 4H3627-AA; conditions: mean of both orientations
T9 chain: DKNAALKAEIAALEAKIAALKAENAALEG

4H2277-AA = molecular target: T10, 4H2277-AA; conditions: mean of both orientations
T10 chain: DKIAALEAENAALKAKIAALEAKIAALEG

4H605-AA = molecular target: T11, 4H605-AA; conditions: mean of both orientations
T11 chain: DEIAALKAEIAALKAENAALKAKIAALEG

4H2466-AA = molecular target: T12, 4H2466-AA; conditions: mean of both orientations
T12 chain: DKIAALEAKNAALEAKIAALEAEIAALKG

4H3343-AA = molecular target: T13, 4H3343-AA; conditions: mean of both orientations
T13 chain: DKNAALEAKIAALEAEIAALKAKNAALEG

4H3655-AA = molecular target: T14, 4H3655-AA; conditions: mean of both orientations
T14 chain: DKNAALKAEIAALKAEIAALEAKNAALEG

4H2754-AA = molecular target: T15, 4H2754-AA; conditions: mean of both orientations
T15 chain: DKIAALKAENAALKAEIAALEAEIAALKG

4H2354-AA = molecular target: T16, 4H2354-AA; conditions: mean of both orientations
T16 chain: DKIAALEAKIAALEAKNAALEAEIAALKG

4H881-AA = molecular target: T17, 4H881-AA; conditions: mean of both orientations
T17 chain: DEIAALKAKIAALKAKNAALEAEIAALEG

4H678-AA = molecular target: T18, 4H678-AA; conditions: mean of both orientations
T18 chain: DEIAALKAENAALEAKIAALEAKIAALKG

4H2393-AA = molecular target: T19, 4H2393-AA; conditions: mean of both orientations
T19 chain: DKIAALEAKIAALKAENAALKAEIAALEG

4H794-AA = molecular target: T20, 4H794-AA; conditions: mean of both orientations
T20 chain: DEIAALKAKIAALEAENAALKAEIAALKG

4H2165-AA = molecular target: T21, 4H2165-AA; conditions: mean of both orientations
T21 chain: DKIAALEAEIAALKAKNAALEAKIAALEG

4H993-AA = molecular target: T22, 4H993-AA; conditions: mean of both orientations
T22 chain: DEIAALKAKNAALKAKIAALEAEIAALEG

4H2949-AA = molecular target: T23, 4H2949-AA; conditions: mean of both orientations
T23 chain: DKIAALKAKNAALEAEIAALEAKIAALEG

4H2837-AA = molecular target: T24, 4H2837-AA; conditions: mean of both orientations
T24 chain: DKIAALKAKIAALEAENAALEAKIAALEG

4H2190-AA = molecular target: T25, 4H2190-AA; conditions: mean of both orientations
T25 chain: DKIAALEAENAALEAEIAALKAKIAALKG

4H3427-AA = molecular target: T26, 4H3427-AA; conditions: mean of both orientations
T26 chain: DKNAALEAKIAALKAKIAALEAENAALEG

4H429-AA = molecular target: T27, 4H429-AA; conditions: mean of both orientations
T27 chain: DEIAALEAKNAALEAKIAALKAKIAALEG

4H2505-AA = molecular target: T28, 4H2505-AA; conditions: mean of both orientations
T28 chain: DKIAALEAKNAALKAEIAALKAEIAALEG

4H317-AA = molecular target: T29, 4H317-AA; conditions: mean of both orientations
T29 chain: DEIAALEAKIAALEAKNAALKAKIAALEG

4H906-AA = molecular target: T30, 4H906-AA; conditions: mean of both orientations
T30 chain: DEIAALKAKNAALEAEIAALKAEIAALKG

4H48-AA = molecular target: T31, 4H48-AA; conditions: mean of both orientations
T31 chain: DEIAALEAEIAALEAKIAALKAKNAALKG

4H454-AA = molecular target: T32, 4H454-AA; conditions: mean of both orientations
T32 chain: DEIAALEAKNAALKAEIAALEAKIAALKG

4H2151-AA = molecular target: T33, 4H2151-AA
T33 chain: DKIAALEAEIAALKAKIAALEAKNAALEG

4H2642-AA = molecular target: T34, 4H2642-AA
T34 chain: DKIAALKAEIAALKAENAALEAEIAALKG

4H2617-AA = molecular target: T35, 4H2617-AA; conditions: mean of both orientations
T35 chain: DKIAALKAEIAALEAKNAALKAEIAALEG

4H3606-AA = molecular target: T36, 4H3606-AA; conditions: mean of both orientations
T36 chain: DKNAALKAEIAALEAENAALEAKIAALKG

4H2729-AA = molecular target: T37, 4H2729-AA; conditions: mean of both orientations
T37 chain: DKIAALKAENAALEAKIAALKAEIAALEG

4H2575-AA = molecular target: T38, 4H2575-AA; conditions: mean of both orientations
T38 chain: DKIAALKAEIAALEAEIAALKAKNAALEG

4H3921-AA = molecular target: T39, 4H3921-AA; conditions: mean of both orientations
T39 chain: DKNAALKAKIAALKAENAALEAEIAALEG

4H780-AA = molecular target: T40, 4H780-AA; conditions: mean of both orientations
T40 chain: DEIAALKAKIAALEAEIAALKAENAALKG

4H1867-AA = molecular target: T41, 4H1867-AA
T41 chain: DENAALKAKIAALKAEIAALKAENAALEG

4H2078-AA = molecular target: T42, 4H2078-AA; conditions: mean of both orientations
T42 chain: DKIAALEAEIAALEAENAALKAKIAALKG

4H335-AA = molecular target: T43, 4H335-AA; conditions: mean of both orientations
T43 chain: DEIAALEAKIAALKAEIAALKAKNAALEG

B1: 4H2151-AA (peptide)
chain: DKIAALEAEIAALKAKIAALEAKNAALEG
- interaction score (4H2883-AA): 0.105
- interaction score (4H3844-AA): -0.871
- interaction score (4H717-AA): -1.61
- interaction score (4H2944-AA): -1.39
- interaction score (4H3112-AA): -0.356
- interaction score (4H566-AA): -1.47
- interaction score (4H234-AA): -1.58
- interaction score (4H342-AA): -1.26
- interaction score (4H3627-AA): -0.182
- interaction score (4H2277-AA): -1.38
- interaction score (4H605-AA): -1.4
- interaction score (4H2466-AA): -1.42
- interaction score (4H3343-AA): -1.19
- interaction score (4H3655-AA): -0.942
- interaction score (4H2754-AA): -1.27
- interaction score (4H2354-AA): -1.44
- interaction score (4H881-AA): -1.51
- interaction score (4H678-AA): -1.37
- interaction score (4H2393-AA): -1.54
- interaction score (4H794-AA): -1.95
- interaction score (4H2165-AA): -0.932
- interaction score (4H993-AA): -1.43
- interaction score (4H2949-AA): -0.904
- interaction score (4H2837-AA): -1.4
- interaction score (4H2190-AA): -1.15
- interaction score (4H3427-AA): -1.02
- interaction score (4H429-AA): -1.48
- interaction score (4H2505-AA): -1.6
- interaction score (4H317-AA): -0.983
- interaction score (4H906-AA): -1.28
- interaction score (4H48-AA): 0.747
- interaction score (4H454-AA): -1.11
- interaction score (4H2151-AA): 1.45
- interaction score (4H2642-AA; mean of both orientations): -1.42
- interaction score (4H2617-AA): -0.476
- interaction score (4H3606-AA): -1.24
- interaction score (4H2729-AA): -0.63

B2: 4H1867-AA (peptide)
chain: DENAALKAKIAALKAEIAALKAENAALEG
- interaction score (4H2883-AA): -0.898
- interaction score (4H3844-AA): 1.01
- interaction score (4H717-AA): -1.28
- interaction score (4H2944-AA): -0.512
- interaction score (4H3112-AA): 0.579
- interaction score (4H566-AA): -1.59
- interaction score (4H2575-AA): 1.63
- interaction score (4H234-AA): -0.943
- interaction score (4H3921-AA): -1.88
- interaction score (4H342-AA): -0.881
- interaction score (4H3627-AA): 0.353
- interaction score (4H780-AA): -0.525
- interaction score (4H2277-AA): -1.23
- interaction score (4H605-AA): -1.5
- interaction score (4H2466-AA): -1.6
- interaction score (4H3343-AA): 0.12
- interaction score (4H3655-AA): -0.0304
- interaction score (4H2754-AA): 1.11
- interaction score (4H2354-AA): -1.35
- interaction score (4H881-AA): -1.8
- interaction score (4H678-AA): -1.03
- interaction score (4H2393-AA): -1.58
- interaction score (4H794-AA): -1.4
- interaction score (4H2165-AA): -1.77
- interaction score (4H993-AA): -1.05
- interaction score (4H2949-AA): -1.06
- interaction score (4H2837-AA): -1.19
- interaction score (4H2190-AA): -0.428
- interaction score (4H3427-AA): -1.26
- interaction score (4H429-AA): -1.51
- interaction score (4H2505-AA): -1.62
- interaction score (4H317-AA): -1.01
- interaction score (4H906-AA): -1.71
- interaction score (4H48-AA): 1.5
- interaction score (4H1867-AA): 0.169
- interaction score (4H2078-AA): -0.776
- interaction score (4H454-AA): -0.172
- interaction score (4H2151-AA; mean of both orientations): -1.27
- interaction score (4H2642-AA): -2.13
- interaction score (4H2617-AA): -1.4
- interaction score (4H3606-AA): -1.11
- interaction score (4H335-AA): -0.988
- interaction score (4H2729-AA): -1.46
